Data from patent publication US20220041658A1 (PROTAGONIST THERAPEUTICS, published 2022).
Positions of bridges follow the written chain, without caps; N, C: chain ends. Non-standard residues stand in square brackets, D forms with d. Trp(7-Me) = Cc1cccc2c(C[C@H](N)C(=O)O)c[nH]c12; 2Nal = N[C@@H](Cc1ccc2ccccc2c1)C(=O)O; AEF = NCCOc1ccc(C[C@H](N)C(=O)O)cc1; αMeF = C[C@](N)(Cc1ccccc1)C(=O)O; Cit = NC(=O)NCCC[C@H](N)C(=O)O; Pen = CC(C)(S)[C@H](N)C(=O)O; αMeK = C[C@](N)(CCCCN)C(=O)O; Abu = CC[C@H](N)C(=O)O; Aib = CC(C)(N)C(=O)O; Sar = CNCC(=O)O

Biological target: T1, interleukin-23 receptor (IL-23R) (human, UniProt Q5VWK5 24-629)
T1 sequence (looked up): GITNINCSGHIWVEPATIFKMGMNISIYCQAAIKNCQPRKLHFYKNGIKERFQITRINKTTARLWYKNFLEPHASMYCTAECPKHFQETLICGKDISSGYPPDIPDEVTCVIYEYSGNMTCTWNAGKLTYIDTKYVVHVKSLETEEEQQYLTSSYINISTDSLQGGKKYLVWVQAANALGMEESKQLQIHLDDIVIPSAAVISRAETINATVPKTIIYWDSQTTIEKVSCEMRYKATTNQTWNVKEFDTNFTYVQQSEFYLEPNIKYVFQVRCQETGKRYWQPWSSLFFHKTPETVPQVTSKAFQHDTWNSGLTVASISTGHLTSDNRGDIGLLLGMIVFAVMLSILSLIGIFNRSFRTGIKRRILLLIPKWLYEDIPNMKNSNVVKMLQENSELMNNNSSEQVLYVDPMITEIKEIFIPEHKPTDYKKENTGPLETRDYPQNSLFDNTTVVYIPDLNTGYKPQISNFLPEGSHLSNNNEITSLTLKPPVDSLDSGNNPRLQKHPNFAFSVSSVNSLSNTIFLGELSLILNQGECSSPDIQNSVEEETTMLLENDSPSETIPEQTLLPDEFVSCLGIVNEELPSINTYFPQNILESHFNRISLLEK
Test: cell-based or functional assay

B1: Peptide of SEQ ID NO: 222 (peptide)
peptide: XNTXQXXXXKSX
modifications: Ac-[Pen]-NT-[W(7-Me)]-Q-[Pen]-Phe[4-(2-aminoethoxy)]-[2-Nal]-[a-MeLeu]-[Lys(Ac)]-[(D)Ser]-[bA]-NH2; Pen-Pen disulfide
  pStat3 HTRF IC50: 5.02 nM

B2: Peptide of SEQ ID NO: 326 (peptide)
peptide: Ac-[dR][Abu]QT[Trp(7-Me)]K(Ac)C[AEF][2Nal][αMeK]K(Ac)N-NH2
modifications: thioether 2-7 (inferred)
  pStat3 HTRF IC50: 18.4 nM

B3: Peptide of SEQ ID NO: 331 (peptide)
peptide: Ac-[Pen][Cit]T[Trp(7-Me)]K(Ac)[Pen][AEF][2Nal][αMeK]K(Ac)N[dL]-NH2
modifications: disulfide 1-6 (inferred)
  pStat3 HTRF IC50: 0.834 nM

B4: Peptide of SEQ ID NO: 343 (peptide)
peptide: Ac-[Pen]NT[Trp(7-Me)][Cit][Pen][AEF][2Nal][αMeK]K(Ac)N[Aib]R-NH2
modifications: disulfide 1-6 (inferred)
  pStat3 HTRF IC50: 1.43 nM

B5: Peptide of SEQ ID NO: 319 (peptide)
peptide: XNTXXXXXXKNL
modifications: Ac-[Pen]-N-T-[W(7-Me)]-[Lys(trifluoropropionic)]-[Pen]-Phe[4-(2-aminoethoxy)]-[2-Nal]-[a-MeLys]-[Lys(Ac)]-N-[(D)Leu]-NH2; Pen-Pen disulfide
  pStat3 HTRF IC50: 0.714 nM

B6: Peptide of SEQ ID NO: 333 (peptide)
peptide: Ac-[Pen]PT[Trp(7-Me)]K(Ac)[Pen][AEF][2Nal][αMeK]K(Ac)N[dL]-NH2
modifications: disulfide 1-6 (inferred)
  pStat3 HTRF IC50: 9.3 nM

B7: Peptide of SEQ ID NO: 322 (peptide)
peptide: XNTXXXXXXKNL
modifications: Ac-[Pen]-N-T-[W(7-Me)]-[Lys(Aib)]-[Pen]-Phe[4-(2-aminoethoxy)]-[2-Nal]-[a-MeLys]-[Lys(Ac)]-N-[(D)Leu]-NH2; Pen-Pen disulfide
  pStat3 HTRF IC50: 0.648 nM

B8: Peptide of SEQ ID NO: 229 (peptide)
peptide: XNTXQXXXXKNX
modifications: Ac-[Pen]-NT-[W(4-OMe)]-Q-[Pen]-Phe[4-(2-aminoethoxy)]-[2-Nal]-[a-MeLys]-[Lys(Ac)]-N-[bA]-NH2; Pen-Pen disulfide
  pStat3 HTRF IC50: 23.1 nM

B9: Peptide of SEQ ID NO: 243 (peptide)
peptide: XNTXKXXXXKNR
modifications: Ac-[Pen]-NT-[W(7-Me)]-[Lys(Ac)]-[Pen]-Phe[4-(2-aminoethoxy)]-[2-Nal]-[a-MeLys]-[Lys(Ac)]-N-R-NH2; Pen-Pen disulfide
  pStat3 HTRF IC50: 1.87 nM

B10: Peptide of SEQ ID NO: 341 (peptide)
peptide: Ac-[Pen]NT[Trp(7-Me)][Cit][Pen][AEF][2Nal][αMeK]K(Ac)N[Aib]G-NH2
modifications: disulfide 1-6 (inferred)
  pStat3 HTRF IC50: 0.934 nM

B11: Peptide of SEQ ID NO: 323 (peptide)
peptide: Ac-[dR][Abu]QT[Trp(7-Me)]K(Ac)C[AEF][2Nal][αMeK]K(Ac)N[dK][Sar]-NH2
modifications: thioether 2-7 (inferred)
  pStat3 HTRF IC50: 5.33 nM

B12: Peptide of SEQ ID NO: 344 (peptide)
peptide: Ac-[Pen]NT[Trp(7-Me)][Cit][Pen][AEF][2Nal][αMeK]K(Ac)N[Aib][dK]-NH2
modifications: disulfide 1-6 (inferred)
  pStat3 HTRF IC50: 0.724 nM

B13: Peptide of SEQ ID NO: 345 (peptide)
peptide: Ac-[Pen]NT[Trp(7-Me)][Cit][Pen][AEF][2Nal][αMeK]K(Ac)N[Aib][dR]-NH2
modifications: disulfide 1-6 (inferred)
  pStat3 HTRF IC50: 0.639 nM

B14: Peptide of SEQ ID NO: 246 (peptide)
peptide: XNTXKXXXXKNX
modifications: Ac-[Pen]-NT-[W(7-Me)]-[Lys(Ac)]-[Pen]-Phe[4-(2-aminoethoxy)]-[2-Nal]-[a-MeLys]-[Lys(Ac)]-N-[NMeArg]-NH2; Pen-Pen disulfide
  pStat3 HTRF IC50: 4.83 nM

B15: Peptide of SEQ ID NO: 351 (peptide)
peptide: XNTXKXXXXKNK
modifications: Ac-[Pen]-N-T-[W(2-Me)]-[Lys(Ac)]-[Pen]-Phe[4-(2-aminoethoxy)]-[2-Nal]-[a-MeLys]-[Lys(Ac)]-N-[(D)Lys]-NH2; Pen-Pen disulfide
  pStat3 HTRF IC50: 11.3 nM

B16: Peptide of SEQ ID NO: 327 (peptide)
peptide: Ac-[dR][Abu]QT[Trp(7-Me)]K(Ac)C[AEF][2Nal][αMeK]K(Ac)N[αMeF]-NH2
modifications: thioether 2-7 (inferred)
  pStat3 HTRF IC50: 12.7 nM

B17: Peptide of SEQ ID NO: 219 (peptide)
peptide: XNTXQXXXXGPX
modifications: Ac-[Pen]-NT-[W(7-Me)]-Q-[Pen]-Phe[4-(2-aminoethoxy)]-[2-Nal]-[a-MeLeu]-G-P-[bA]-NH2; Pen-Pen disulfide
  pStat3 HTRF IC50: 93.7 nM

B18: Peptide of SEQ ID NO: 244 (peptide)
peptide: XNTXKXXXXKNL
modifications: Ac-[Pen]-NT-[W(7-Me)]-[Lys(Ac)]-[Pen]-Phe[4-(2-aminoethoxy)]-[2-Nal]-[a-MeLys]-[Lys(Ac)]-N-L-NH2; Pen-Pen disulfide
  pStat3 HTRF IC50: 1.45 nM

B19: Peptide of SEQ ID NO: 228 (peptide)
peptide: XNTXQXXXXKNX
modifications: Ac-[Pen]-NT-[W(6-Cl)]-Q-[Pen]-Phe[4-(2-aminoethoxy)]-[2-Nal]-[a-MeLys]-[Lys(Ac)]-N-[bA]-NH2; Pen-Pen disulfide
  pStat3 HTRF IC50: 25.7 nM

B20: Peptide of SEQ ID NO: 220 (peptide)
peptide: XNTXQXXXXGPX
modifications: Ac-[Pen]-NT-[W(7-Me)]-Q-[Pen]-Phe[4-(2-aminoethoxy)]-[2-Nal]-[a-MeLeu]-G-[(D)Pro]-[bA]-NH2; Pen-Pen disulfide
  pStat3 HTRF IC50: 195 nM

B21: Peptide of SEQ ID NO: 347 (peptide)
peptide: Ac-[Pen]NT[Trp(7-Me)][Cit][Pen][AEF][2Nal][αMeK]K(Ac)N[Aib][dY]-NH2
modifications: disulfide 1-6 (inferred)
  pStat3 HTRF IC50: 0.637 nM

B22: Peptide of SEQ ID NO: 204 (peptide)
peptide: XQTXQCXXXENX
modifications: Ac-Abu-Q-T-[W(7-Me)]-Q-C-Phe[4-(2-aminoethoxy)]-[2-Nal]-[THP]-E-N-[bA]-NH2; Abu-Cys thioether
  pStat3 HTRF IC50: 1.75 nM
